In assay [1] the test system is BMP signaling. The experiment in a line: BMP inhibition in mouse whole embryo culture. It counts as in vivo. As to the method: For mouse whole embryo cultures, e7.5 embryos were cultured in a 1:1 mixture of Ham's F12 medium and whole embryo culture rat serum (Harlan Labs) containing N-2 Supplement (Invitrogen). Vessels were placed on a roller culture apparatus (BTC Engineering, Cambridge, UK) and maintained for 2 days at 37° C. and gassed with 20% 02 and 5% CO2. BMP signaling was inhibited by treatment with 5 pM DMH-1, with DMSO serving as a vehicle control.
(§1) Tissue processing, immunofluorescence and microscopy. Tissues were fixed for 1-3 hours in 4% paraformaldehyde (PFA) on ice depending on the size of the tissue. Organoids and transplant engraftments were frozen in OCT. OCT sections were blocked using donkey serum (5% serum in 1×PBS plus 0.5% Triton-X) for 30 min and incubated with primary antibody overnight at 4° C. Slides were then washed 3× with 1×PBS plus 0.5% Triton-X and incubated in secondary antibody with DAPI in blocking buffer for 2 h at room temperature. See Table 2 for a list of antibodies and respective dilutions. Slides were then washed 2× with 1×PBS plus 0.5% Triton-X followed by a final wash in 1×PBS. Coverslips were then mounted using Fluoromount-G® (SouthernBiotech). Images were captured on a Nikon A1 confocal microscope and analyzed using Imaris Imaging Software (Bitplane). For whole-mount staining, tissues were processed similarly as above and then cleared in Murray's solution. Imaging was performed with a Nikon A1 confocal microscope.
(§2) Quantification of immunofluorescence images. Image quantitation of whole embryos was done by splitting images into separated channels and then measuring pixel area using ImageJ (NIH). Pixel area was determined for each channel, the ratio between channels was determined and the ratio for control treated embryos was represented as 100. Quantitation of in vitro and in vivo grown organoids was done on sections from which images were captured as explained above. The number of CDX2, GATA4 and SATB2 positive nuclei were quantified using the spot function in [marls following calibration with human biopsy samples.

The test system of assay [2] is BMP signaling. Nature of the assay: BMP inhibition in Xenopus tropicalis embryos. The format is in vivo. The settings on record: DMH-1 20 pM vs DMSO. As to the method:
BMP inhibition in frog and mouse embryos. Xenopus tropicalis embryo culture and small molecule treatments were performed as previously described (Rankin et al., 2012; Rankin et al., 2015). DMH-1 (Sigma D8946) was dissolved in DMSO, and used at final concentration of 20 pM; equal concentrations of DMSO vehicle were used on sibling embryos. Inhibitor treatment experiments were repeated twice with similar effects on the markers analyzed. For Xenopus in-situ hybridization analyses, DIG-labeled antisense RNA probes were generated using linearized full-length cDNA plasmid templates (X. tropicalis satb2 was purchased from ATCC, clone 7720194; HinDIII, T7 for probe; X. laevis satb2 was a gift for Tyler Square and Daniel Medeiros, University of Colorado-Boulder; Xbal, Sp6 for probe). Complete details describing probe synthesis and the in-situ hybridization protocol are available on Xenbase (hftp://wiki.xenbase.orq/xenwiki/index.php/Protocols).

Assay [3] concerns human gut tube spheroids. The experiment in a line: HOX/MSX2 gene expression in patterned gut tube spheroids after 3 days (RNA-seq, QPCR). The format is cell-based. As to the method: (§3) Patterning midgut/hingut spheroids into HIOs and HCOs. Spheroids were collected from 24 well plate and plated in Matrigel (BD). To generate proximal HIOs, spheroids were overlayed with intestinal growth medium (Advanced DMEM/F-12, N2, B27, 15 mM HEPES, 2 mM L-glutamine, penicillin-streptomycin) supplemented with 100 ng/mL EGF (R&D) alone, or 100 ng/mL EGF with 100 ng/ml NOGGIN (R&D). To generate HCOs, spheroids were overlayed with 100 ng/mL EGF plus 100 ng/mL BMP (R&D). For SHH experiments, 1 pM SAG (Tocris), 5 pM SAG or 2.5 pM Cyclopamine (Tocris) were added to control media for initial 3 days after which RNA samples were collected. Media was changed at 3 days with only EGF being maintained in the media for all patterning conditions. Media was then changed twice weekly thereafter. HIOs and HCOs were replated in fresh Matrigel every 14 days.
(§4) RNA isolation and QPCR. RNA was extracted using Nucleospin® RNA extraction kit (Macharey-Nagel) and reverse transcribed into cDNA using Superscript VILO (Invitrogen) according to manufacturer's protocols. QPCR primers were designed using the qPrimerDepot webased tool (primerdepot.nci.nih.gov). QPCR was performed using Quantitect SYBR® Green PCR kit (Qiagen) and a QuantStudio™ 6 Flex Real-Time PCR System (Applied Biosystems).

In assay [4] the test system is human intestinal organoids. Nature of the assay: Regional markers in organoids after prolonged in vitro culture (IF, QPCR). It counts as cell-based. On the procedure: as §3, §1, §2, §4
For the next assay, the system named is organoid mesenchyme. The experiment in a line: Patterning markers in isolated organoid mesenchyme cultures (QPCR). The format is cell-based, human. The note with it: mesenchymal cell cultures expanded for 2-3 weeks. As to the method: as §4
The test system of assay [5] is human gut tube spheroids. The experiment in a line: Patterning of human gut tube spheroids (pSMAD1/5/8 and SATB2 staining). It counts as cell-based. The settings on record: spheroids treated for 12 hours; 100 ng/mL. On the procedure: as §3, with “Media was then changed twice weekly thereafter. HIOs and HCOs were replated in fresh Matrigel every 14 days.” left out
Tissue processing, immunofluorescence and microscopy. […] Images were captured on a Nikon A1 confocal microscope and analyzed using Imaris Imaging Software (Bitplane). […]
Quantification of immunofluorescence images. Image quantitation of whole embryos was done by splitting images into separated channels and then measuring pixel area using ImageJ (NIH). Pixel area was determined for each channel, the ratio between channels was determined and the ratio for control treated embryos was represented as 100. Quantitation of in vitro and in vivo grown organoids was done on sections from which images were captured as explained above. […]

In another assay the test system is transplanted organoids. The experiment in a line: Transplantation of patterned organoids under the mouse kidney capsule. It counts as in vivo. As to the method: as §1
Where [6] appears, read: 28-day old organoids after initial 3 day treatment.

With `CC(C)Oc1ccc(-c2cnc3c(-c4ccnc5ccccc45)cnn3c2)cc1` [DMH-1], in the assay on BMP signaling [1] (DMH-1 treated mouse embryos), the “Satb2 expression in the first brachial arch” value is reported as “lost”. Further, the “Satb2 expression in the posterior gut tube” value in the assay on BMP signaling [1] (e7.5 mouse embryos, 48 hours of DMH-1 treatment) was “loss of Satb2 expression”. Further, the pSmad1/5/8 levels result in the assay on BMP signaling [1] (e7.5 mouse embryos, 48 hours of DMH-1 treatment, 5 µM DMH-1 vs DMSO) is given as “significant reduction”. Further, the “TGFI3 signaling as measured by pSmad2/3 levels” value in the assay with BMP signaling [1] (mouse embryos cultured in DMSO or DMH-1) is on record as “no impact”. Further, the “Satb2 expression in the hindgut and brachial arches” value in the assay with BMP signaling [2] is recorded as “loss of Satb2 expression”.
Regarding `CNC1CCC(N(Cc2cccc(-c3ccncc3)c2)C(=O)c2sc3ccccc3c2Cl)CC1` (stereo not shown) [SAG], the “SAG-mediated activation of MSX2, HOXA13, HOXD13 relative to activation mediated by BMP2” value in the assay with human gut tube spheroids [3] (3 days) is reported as “only a fraction”. The “activation of MSX2, HOXA13 and HOXD13 (QPCR)” value with human gut tube spheroids [3] (SAG added to control media for initial 3 days) is listed as “concentration dependent activation”.

B1: NOGGIN: BMP inhibitor NOGGIN (R&D), 100 ng/ml, used to generate proximal HIOs (protein, UniProt Q13253 28-232, looked up)
Noggin: QHYLHIRPAPSDNLPLVDLIEHPDPIFDPKEKDLNETLLRSLLGGHYDPGFMATSPPEDRPGGGGGAAGGAEDLAELDQLLRQRPSGAMPSEIKGLEFSEGLAQGKKQRLSKKLRRKLQMWLWSQTFCPVLYAWNDLGSRFWPRYVKVGSCFSKRSCSVPEGMVCKPSKSVHLTVLRWRCQRRGGQRCGWIPIQYPIISECKCSC
In the case of B1, the “SATB2 expression after re-patterning with NOGGIN” value in assay [4] (3-day BMP treated spheroids shifted to NOGGIN-containing media for 3 days) was “a subset of organoids lost SATB2 expression”. Besides, in assay [4] (setting [6]), the “Levels of ONECUT1 (marker of proximal small intestine)” value is reported as “highest” and the “SATB2 in the epithelium” value is listed as “absent”. Besides, the “MUC5B staining (colon-specific goblet cell marker)” value in assay [4] (28-day organoids) is recorded as “absent”. In addition, in assay [4] (at 28 days), the “goblet cells by intracellular MUC2 staining” value was “rare intracellular MUC2 staining”. In the assay with organoid mesenchyme, the “HOXD3 expression / proximal identity of mesenchyme” value is “stable proximal identity”. In addition, the “BMP signaling levels by nuclear pSMAD1/5/8 staining” value with human gut tube spheroids [5] is given as “abolished this staining”. The “efficiency of organoid engraftment” value in the assay with transplanted organoids (compared with HCOs) was “more efficient”. In the assay with transplanted organoids (under the mouse kidney capsule for 6-10 weeks), the “epithelial morphology of transplanted organoids” value was “formed well-defined crypts and tall villi”.

Source of the values: patent US11767515B2, “Colonic organoids and methods of making and using same” (Children's Hospital Medical Center, priority 2016, dated 2023).
